Values quoted from earlier work in article PMC9255719.
“And” between values parts separate entries of the source, which are not always exact repeats. Identical values can stand only once. Like-named read-outs stand apart in the source and are kept apart here. One block for each substance: values may come before it.

Key:
[1] = target: FcRn (Rattus norvegicus) (UniProt P13599)
[2] = target: FcRn (Homo sapiens) (UniProt P55899)
[3] = target: FcRn (Rattus norvegicus) (UniProt P13599); remark: listed apart in the source
[4] = target: FcRn (Rattus norvegicus) (UniProt P13599); remark: listed apart in the source
[5] = target: FcRn (Rattus norvegicus) (UniProt P13599); remark: listed apart in the source
[6] = target: FcRn (Homo sapiens) (UniProt P55899); remark: listed apart in the source
[7] = target: FcRn (Rattus norvegicus) (UniProt P13599); remark: listed apart in the source
[8] = target: FcRn (Rattus norvegicus) (UniProt P13599); remark: listed apart in the source
[9] = target: FcRn (Rattus norvegicus) (UniProt P13599); remark: listed apart in the source
[10] = target: FcRn (Rattus norvegicus) (UniProt P13599); remark: listed apart in the source
[11] = target: FcRn (Rattus norvegicus) (UniProt P13599); remark: listed apart in the source
[12] = target: FcRn (Rattus norvegicus) (UniProt P13599); remark: listed apart in the source
[13] = target: FcRn (Rattus norvegicus) (UniProt P13599); remark: listed apart in the source
[14] = target: FcRn (Rattus norvegicus) (UniProt P13599); remark: listed apart in the source
[15] = target: cubilin (UniProt O60494)
Chain of UniProt O60494 (O60494 36-3623): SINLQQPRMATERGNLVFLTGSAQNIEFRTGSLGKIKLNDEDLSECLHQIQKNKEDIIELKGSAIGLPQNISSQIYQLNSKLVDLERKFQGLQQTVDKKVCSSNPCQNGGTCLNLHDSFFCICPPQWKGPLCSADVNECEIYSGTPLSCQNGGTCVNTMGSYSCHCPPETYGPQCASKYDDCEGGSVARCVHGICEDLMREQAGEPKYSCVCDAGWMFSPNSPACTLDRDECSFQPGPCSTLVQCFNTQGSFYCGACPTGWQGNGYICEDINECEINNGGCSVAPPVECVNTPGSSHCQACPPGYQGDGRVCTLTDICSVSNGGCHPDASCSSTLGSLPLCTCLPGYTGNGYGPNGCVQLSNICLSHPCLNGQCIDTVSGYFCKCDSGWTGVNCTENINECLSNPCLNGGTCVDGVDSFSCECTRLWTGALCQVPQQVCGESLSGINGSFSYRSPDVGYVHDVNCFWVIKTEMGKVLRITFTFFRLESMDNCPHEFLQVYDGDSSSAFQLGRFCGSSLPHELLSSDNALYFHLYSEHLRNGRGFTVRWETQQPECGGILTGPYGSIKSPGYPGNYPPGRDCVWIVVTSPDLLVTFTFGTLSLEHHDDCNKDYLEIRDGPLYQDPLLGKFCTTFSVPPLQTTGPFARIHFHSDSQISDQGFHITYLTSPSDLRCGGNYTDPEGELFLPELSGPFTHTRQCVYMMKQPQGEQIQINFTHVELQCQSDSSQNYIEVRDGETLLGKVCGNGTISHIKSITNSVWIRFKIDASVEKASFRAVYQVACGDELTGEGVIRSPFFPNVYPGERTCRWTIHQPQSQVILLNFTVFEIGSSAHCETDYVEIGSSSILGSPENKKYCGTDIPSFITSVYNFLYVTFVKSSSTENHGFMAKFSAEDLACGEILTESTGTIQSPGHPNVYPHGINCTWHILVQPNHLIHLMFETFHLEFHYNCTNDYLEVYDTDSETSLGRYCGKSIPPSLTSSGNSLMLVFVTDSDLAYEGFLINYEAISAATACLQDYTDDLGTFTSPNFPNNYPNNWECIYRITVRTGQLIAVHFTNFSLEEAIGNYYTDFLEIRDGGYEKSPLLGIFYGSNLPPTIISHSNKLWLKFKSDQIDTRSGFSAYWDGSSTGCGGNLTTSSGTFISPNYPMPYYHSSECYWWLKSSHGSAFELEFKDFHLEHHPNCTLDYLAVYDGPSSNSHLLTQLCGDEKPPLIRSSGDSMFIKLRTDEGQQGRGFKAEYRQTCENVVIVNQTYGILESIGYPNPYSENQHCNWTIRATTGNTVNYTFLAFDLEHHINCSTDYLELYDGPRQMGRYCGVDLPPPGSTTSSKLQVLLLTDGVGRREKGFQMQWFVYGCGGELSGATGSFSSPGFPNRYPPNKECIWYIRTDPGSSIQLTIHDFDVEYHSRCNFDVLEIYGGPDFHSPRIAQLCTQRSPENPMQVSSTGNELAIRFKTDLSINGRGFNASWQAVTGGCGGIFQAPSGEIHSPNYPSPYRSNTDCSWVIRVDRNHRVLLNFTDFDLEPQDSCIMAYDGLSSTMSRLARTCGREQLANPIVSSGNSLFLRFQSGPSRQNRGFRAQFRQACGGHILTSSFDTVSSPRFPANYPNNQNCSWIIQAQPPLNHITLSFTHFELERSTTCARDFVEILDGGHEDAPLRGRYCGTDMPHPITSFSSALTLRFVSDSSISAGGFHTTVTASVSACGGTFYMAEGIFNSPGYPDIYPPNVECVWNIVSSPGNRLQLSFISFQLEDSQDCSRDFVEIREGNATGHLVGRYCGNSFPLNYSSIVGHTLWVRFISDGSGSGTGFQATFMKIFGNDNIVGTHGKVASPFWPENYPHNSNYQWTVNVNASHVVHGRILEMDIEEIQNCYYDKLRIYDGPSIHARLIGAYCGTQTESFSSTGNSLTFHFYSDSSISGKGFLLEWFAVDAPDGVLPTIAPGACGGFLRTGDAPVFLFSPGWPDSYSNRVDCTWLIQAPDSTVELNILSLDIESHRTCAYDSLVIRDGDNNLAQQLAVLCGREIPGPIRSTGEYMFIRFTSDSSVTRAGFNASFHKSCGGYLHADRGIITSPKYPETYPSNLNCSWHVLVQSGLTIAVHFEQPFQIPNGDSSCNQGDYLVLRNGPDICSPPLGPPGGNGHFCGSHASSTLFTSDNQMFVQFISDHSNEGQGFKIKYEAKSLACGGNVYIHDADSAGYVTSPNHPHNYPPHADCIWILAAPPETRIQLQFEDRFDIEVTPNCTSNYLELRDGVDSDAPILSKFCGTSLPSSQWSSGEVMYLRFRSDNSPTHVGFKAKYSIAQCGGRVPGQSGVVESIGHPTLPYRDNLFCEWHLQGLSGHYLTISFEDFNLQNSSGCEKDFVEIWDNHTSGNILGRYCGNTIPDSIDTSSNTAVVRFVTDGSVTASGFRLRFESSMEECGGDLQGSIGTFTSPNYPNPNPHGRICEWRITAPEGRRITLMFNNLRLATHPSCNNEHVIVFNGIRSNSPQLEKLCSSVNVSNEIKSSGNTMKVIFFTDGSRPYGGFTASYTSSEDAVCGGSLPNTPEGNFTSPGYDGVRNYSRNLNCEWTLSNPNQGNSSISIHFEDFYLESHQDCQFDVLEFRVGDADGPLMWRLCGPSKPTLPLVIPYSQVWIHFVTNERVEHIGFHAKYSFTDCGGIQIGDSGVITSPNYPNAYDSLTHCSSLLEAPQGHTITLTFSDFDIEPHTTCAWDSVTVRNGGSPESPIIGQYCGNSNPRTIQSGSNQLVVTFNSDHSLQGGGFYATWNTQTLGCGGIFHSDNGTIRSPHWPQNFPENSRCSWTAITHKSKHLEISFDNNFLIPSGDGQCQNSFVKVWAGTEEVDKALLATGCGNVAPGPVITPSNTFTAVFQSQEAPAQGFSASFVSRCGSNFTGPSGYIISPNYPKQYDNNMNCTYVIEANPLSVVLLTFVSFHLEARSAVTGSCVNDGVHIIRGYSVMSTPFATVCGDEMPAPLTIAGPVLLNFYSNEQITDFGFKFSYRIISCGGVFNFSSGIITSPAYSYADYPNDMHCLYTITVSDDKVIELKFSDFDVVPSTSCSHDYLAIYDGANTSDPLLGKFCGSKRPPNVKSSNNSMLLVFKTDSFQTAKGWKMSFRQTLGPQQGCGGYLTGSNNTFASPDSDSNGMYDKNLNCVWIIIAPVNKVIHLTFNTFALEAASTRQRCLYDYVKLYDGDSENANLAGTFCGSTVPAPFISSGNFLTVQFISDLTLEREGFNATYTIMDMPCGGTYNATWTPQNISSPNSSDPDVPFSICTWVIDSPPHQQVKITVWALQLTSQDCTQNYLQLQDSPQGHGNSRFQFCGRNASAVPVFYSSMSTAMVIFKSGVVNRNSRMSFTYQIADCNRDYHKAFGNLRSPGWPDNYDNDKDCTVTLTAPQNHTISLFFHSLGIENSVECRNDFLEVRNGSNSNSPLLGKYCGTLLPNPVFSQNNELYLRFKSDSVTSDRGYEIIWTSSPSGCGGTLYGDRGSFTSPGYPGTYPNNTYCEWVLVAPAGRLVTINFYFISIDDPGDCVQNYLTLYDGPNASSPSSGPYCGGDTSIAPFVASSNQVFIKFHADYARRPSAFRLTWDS

[16] = target: FcRn (Rattus norvegicus) (UniProt P13599); remark: listed apart in the source
[17] = target: Albumin-Texas Red-X conjugate (2:1) (UniProt P02770); test: not stated in this review (data reproduced from ref [155]); conditions: pH 6; not stated (pH 6 and pH 7.4)
[18] = target: Albumin-Texas Red-X conjugate (1:1) (UniProt P02770); test: as above; conditions: pH 6; not stated (pH 6 and pH 7.4)
[19] = target: Albumin-Texas Red conjugate (1:1) (UniProt P02770); test: as above; conditions: not stated (pH 6 and pH 7.4)
[20] = target: Albumin-Alexa 647 maleimide conjugate (1:1) (UniProt P02770); test: as above; conditions: pH 6; not stated (pH 6 and pH 7.4)
[21] = target: Albumin-fluorescein conjugate (6.4:1) (UniProt P02770); test: as above; conditions: not stated (pH 6 and pH 7.4)
[22] = target: Serum albumin, unlabelled ('No dye') (UniProt P02770); test: as above; conditions: not stated (pH 6 and pH 7.4)
[23] = target: Albumin-CF-594 maleimide conjugate (dye:albumin 1:3) (UniProt P02770); test: as above; conditions: pH 6; not stated (pH 6 and pH 7.4)
[24] = target: Albumin-Texas Red-X conjugate (4:1) (UniProt P02770); test: as above; conditions: pH 6; not stated (pH 6 and pH 7.4)
[25] = target: Albumin-Texas Red-X conjugate (5:1) (UniProt P02770); test: as above; conditions: pH 6; not stated (pH 6 and pH 7.4)
[26] = target: Albumin-Alexa 568 conjugate (4:1) (UniProt P02770); test: as above; conditions: pH 6; not stated (pH 6 and pH 7.4)
[27] = target: FcRn (Rattus norvegicus) (UniProt P13599); remark: listed apart in the source

Chain of UniProt P13599 (P13599 23-298): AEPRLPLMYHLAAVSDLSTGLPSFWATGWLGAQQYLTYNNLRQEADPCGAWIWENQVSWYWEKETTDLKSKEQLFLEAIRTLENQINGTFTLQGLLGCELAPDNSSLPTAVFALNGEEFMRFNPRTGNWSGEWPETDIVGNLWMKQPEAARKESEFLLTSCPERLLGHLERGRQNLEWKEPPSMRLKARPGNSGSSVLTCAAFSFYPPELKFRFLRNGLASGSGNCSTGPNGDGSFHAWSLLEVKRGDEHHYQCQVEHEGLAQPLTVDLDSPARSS
Chain of UniProt P55899 (P55899 24-297): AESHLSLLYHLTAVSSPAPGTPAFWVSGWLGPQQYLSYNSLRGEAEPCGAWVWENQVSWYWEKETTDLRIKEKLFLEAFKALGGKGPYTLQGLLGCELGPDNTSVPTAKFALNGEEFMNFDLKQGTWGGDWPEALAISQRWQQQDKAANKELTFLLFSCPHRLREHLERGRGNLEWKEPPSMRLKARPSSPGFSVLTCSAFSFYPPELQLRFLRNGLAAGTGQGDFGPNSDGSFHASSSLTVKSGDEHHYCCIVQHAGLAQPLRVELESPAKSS

Substance: albumin (from UniProt P08835)
Kd [1]: > 100 µM
Kd [2]: > 50 µM

Substance: albumin (from UniProt P14639)
Kd [3]: > 100 µM

Substance: albumin (from UniProt P49065)
Kd [4]: 11.8 µM

Substance: albumin (from UniProt P02769)
Kd [5]: > 100 µM

Substance: albumin (from UniProt P07724)
Kd [27]: > 100 µM

Second part, the substance after the results:

Kd [6]: 1.1 µM
Kd [7]: > 40 µM
Kd [8]: 17 µM
Kd [9]: 1.5 µM
Kd [10]: 11.6 µM
Kd [11]: 10 µM
Kd [12]: 5.4 µM
Kd [13]: > 100 µM
Kd [14]: 11 µM and 6 µM
Substance: albumin (from UniProt P02770)

Kd [15]: 0.63 µM
Kd [16]: > 100 µM
Substance: albumin (from UniProt P02768)

Kd [17]: 10 µM
Kd [18]: 5.4 µM
Kd ([19]; pH 6): 6 µM
Kd ([19]; pH 7.4): 11 µM
Kd [20]: 11 µM
Kd ([21]; pH 6): 69 µM
Kd ([21]; pH 7.4): 1 µM
Kd ([22]; pH 6): 11.6 µM
Kd ([22]; pH 7.4): > 100 µM
Kd [23]: 1.5 µM
Kd [24]: > 40 µM
Kd [25]: > 100 µM
Kd [26]: 17 µM
Substance: Neonatal Fc receptor (FcRn), rat (rFcRn)
